Read-outs that look alike come from different tables or passages of the source.
B1: fully human anti-PD-L1 antibody 192D9E7 (antibody, human IgG4 S228P, kappa, V domains shown)
VH: EVQLVESGGGLVQPGGSLRLSCAASGFTFSSYWMSWVRQAPGKGLEWVADIKQDGSEKYYVDSVKGRFTISRDNAKNSLYLQMNSLRAEDTAVYYCTRDKPHWGGVMDAWGQGTSVTVSS
VL: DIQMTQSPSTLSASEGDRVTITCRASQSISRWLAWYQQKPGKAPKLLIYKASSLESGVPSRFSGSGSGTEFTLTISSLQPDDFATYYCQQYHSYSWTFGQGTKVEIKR
notes: also called 192D9E7 (fully human); 192D9F7
B2: fully human anti-PD-L1 antibody 73G11B3 (antibody, human IgG4 S228P, kappa, V domains shown)
VH: EVQLVESGGGLVQPGGSLRLSCVVSGFTFSSYWMSWVRQTPGKGLEWVANIKQDGSEKYYVDSVKGRLTISRDNAKNSLYLQMNSLRAEDTAVYYCVRDRAVPGTGALDIWGQGTMVTVSS
VL: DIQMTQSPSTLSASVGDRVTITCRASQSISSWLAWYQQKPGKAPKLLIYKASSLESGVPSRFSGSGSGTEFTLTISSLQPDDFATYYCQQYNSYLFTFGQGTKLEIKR
notes: also called 73G11B3 (fully human)
B3: fully human anti-PD-L1 antibody 127D2F3 (antibody, human IgG4 S228P, kappa, V domains shown)
VH: EVQLVESGGGLVQPGGSLRLSCVASGFTFSSYWMSWVRQAPGKGLEWVANIKQDGSEKYYVDSVKGRLTISRDNAKNSLYLQMKSLRAEDTAVYYCARDPIYSSYFDYWGQGILVTVSS
VL: DIQMTQSPSSLSASVGDRVTITCRASQSISNYLNWYQQKPGKAPKLLIYAASSLQSGVPSRFSGSGSGTDFTLTISSLQPEDFAAYYCQQSYGIPFTFGPGTKVDIKR
notes: also called 127D2F3 (fully human)

Legend:
[1] = target: T1, human PD-L1^ECD-hFc protein (human, UniProt Q9NZQ7 19-239, biotinylated in the PD-1 binding ELISA (Table 3) and in the Octet assay (Table 12)); test: ELISA, 0.003 nM mAb
T1 construct: The plain and the biotinylated protein are kept as one molecule; also called PD-L1-hFc; Immunogen A; not shown: human IgG Fc fragment (hFc)

[2] = target: T2, full length human PD-L1 on cells (human, UniProt Q9NZQ7 19-290); test: cell-based or functional assay
[3] = target: T1, human PD-L1^ECD-hFc protein; test: ELISA, 0.3 nM mAb
[4] = target: T1, human PD-L1^ECD-hFc protein; test: ELISA, 0.0003 nM mAb
[5] = target: T3, cyno PD-L1^ECD-hFc protein (cyno, UniProt G7PSE7 19-239); test: ELISA, 0.3 nM mAb
T3 construct: also called Cyno Monkey PD-L1^ECD-hFc

[6] = target: T3, cyno PD-L1^ECD-hFc protein; test: ELISA, 0.0003 nM mAb
[7] = target: T3, cyno PD-L1^ECD-hFc protein; test: ELISA, 3 nM mAb
[8] = target: T3, cyno PD-L1^ECD-hFc protein; test: ELISA, 0.003 nM mAb
[9] = target: T2, full length human PD-L1 on cells; test: cell-based or functional assay; remark: listed apart in the source
[10] = target: T3, cyno PD-L1^ECD-hFc protein; test: ELISA, 0.00003 nM mAb
[11] = target: T1, human PD-L1^ECD-hFc protein; test: ELISA, 3 nM mAb
[12] = target: T2, full length human PD-L1 on cells; test: cell-based or functional assay; remark: listed apart in the source
[13] = target: T1, human PD-L1^ECD-hFc protein; test: ELISA receptor-ligand blocking assay: PD-L1 protein coated, fully human antibody titrated, blocked ligand PD-1, inhibition rate (%)
[14] = target: T3, cyno PD-L1^ECD-hFc protein; test: ELISA, 30 nM mAb
[15] = target: T1, human PD-L1^ECD-hFc protein; test: ELISA, 0.03 nM mAb
[16] = target: T2, full length human PD-L1 on cells; test: cell-based or functional assay; remark: listed apart in the source
[17] = target: T1, human PD-L1^ECD-hFc protein; test: ELISA, 0.00003 nM mAb
[18] = target: T1, human PD-L1^ECD-hFc protein; test: ELISA, 30 nM mAb
[19] = target: T1, human PD-L1^ECD-hFc protein; test: ELISA receptor-ligand blocking assay: PD-L1 protein coated, fully human antibody titrated, blocked ligand B7.1, inhibition rate (%)
[20] = target: T3, cyno PD-L1^ECD-hFc protein; test: ELISA, 0.03 nM mAb
[21] = target: T2, full length human PD-L1 on cells; test: cell-based or functional assay; remark: listed apart in the source

T1 sequence (Q9NZQ7 19-239): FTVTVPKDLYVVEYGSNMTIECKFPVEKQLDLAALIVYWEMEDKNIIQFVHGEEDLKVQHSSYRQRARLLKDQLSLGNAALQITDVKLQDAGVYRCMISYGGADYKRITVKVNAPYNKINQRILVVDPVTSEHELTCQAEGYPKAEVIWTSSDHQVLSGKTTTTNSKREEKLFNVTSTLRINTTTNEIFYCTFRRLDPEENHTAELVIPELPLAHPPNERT
T2 sequence (Q9NZQ7 19-290 limits assumed): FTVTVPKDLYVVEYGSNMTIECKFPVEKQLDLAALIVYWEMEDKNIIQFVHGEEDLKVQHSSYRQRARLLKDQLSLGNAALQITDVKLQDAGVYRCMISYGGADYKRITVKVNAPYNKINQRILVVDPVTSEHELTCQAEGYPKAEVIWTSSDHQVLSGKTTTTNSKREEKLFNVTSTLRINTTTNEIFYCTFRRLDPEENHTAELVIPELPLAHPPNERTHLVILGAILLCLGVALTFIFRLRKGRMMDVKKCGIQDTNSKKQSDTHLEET
T3 sequence (G7PSE7 entry or part of it limits assumed): as the sequence (Q9NZQ7 19-239) above, with A33T, A34S, S62N, R68Q, Q82R, F173L, T185A, T192I, H215L counted along it

| Binder | OD450 nm [1] | IFN-γ (pg/mL), T cell stimulation assay, 0.001 µg/mL mAb [2] [pg/mL] | IFN-γ (pg/mL), T cell stimulation assay, 0.01 µg/mL mAb [2] [pg/mL] | IFN-γ (pg/mL), T cell stimulation assay, 0.1 µg/mL mAb [2] [pg/mL] | IFN-γ (pg/mL), T cell stimulation assay, 1 µg/mL mAb [2] [pg/mL] | OD450 nm [3] | OD450 nm [4] | OD450 nm [5] | OD450 nm [6] | OD450 nm [7] | OD450 nm [8] | OD450 nm [10] | OD450 nm [11] | IC50 (read off the curve) [13] [nM] | OD450 nm [14] | OD450 nm [15] | OD450 nm [17] | OD450 nm [18] | IC50 (read off the curve) [19] [nM] | OD450 nm [20] | further results |
| --- | --- | --- | --- | --- | --- | --- | --- | --- | --- | --- | --- | --- | --- | --- | --- | --- | --- | --- | --- | --- | --- |
| B1 | 0.322 | 6150 | 13100 | 11500 | 15200 | 2.52 | 0.285 | 2.55 | 0.348 | 2.66 | 0.376 | 0.324 | 2.67 | ~1 | 2.54 | 0.786 | 0.287 | 2.59 | ~0.8 | 0.953 | IFN-γ (pg/mL), MLR, 0.001 µg/mL mAb [9]: 9030 pg/mL; IFN-γ (pg/mL), MLR, 0.01 µg/mL mAb [9]: 11200 pg/mL; IFN-γ (pg/mL), MLR, 0.1 µg/mL mAb [9]: 19600 pg/mL; IFN-γ (pg/mL), MLR, 1 µg/mL mAb [9]: 22900 pg/mL; IFN-γ (pg/mL), MLR, 10 µg/mL mAb [9]: 15500 pg/mL; IL-2 (pg/mL), MLR, 0.001 µg/mL mAb [12]: 210 pg/mL; IL-2 (pg/mL), MLR, 0.01 µg/mL mAb [12]: 341 pg/mL; IL-2 (pg/mL), MLR, 0.1 µg/mL mAb [12]: 713 pg/mL; IL-2 (pg/mL), MLR, 1 µg/mL mAb [12]: 721 pg/mL; IL-2 (pg/mL), MLR, 10 µg/mL mAb [12]: 770 pg/mL; IFN-γ (pg/mL), MLR, 0.001 µg/mL mAb [16]: 592 pg/mL; IFN-γ (pg/mL), MLR, 0.01 µg/mL mAb [16]: 915 pg/mL; IFN-γ (pg/mL), MLR, 0.1 µg/mL mAb [16]: 1870 pg/mL; IFN-γ (pg/mL), MLR, 1 µg/mL mAb [16]: 2760 pg/mL; IFN-γ (pg/mL), MLR, 10 µg/mL mAb [16]: 2270 pg/mL |
| B2 | 0.403 | 6780 | 10900 | 13100 | 13500 | 2.48 | 0.254 | 2.52 | 0.283 | 2.65 | 0.358 | 0.308 | 2.72 | ~1 | 2.6 | 0.855 | 0.256 | 2.67 | ~0.9 | 1 | IFN-γ (pg/mL), T cell stimulation assay, 0.001 µg/mL mAb [21]: 5120 pg/mL; IFN-γ (pg/mL), T cell stimulation assay, 0.01 µg/mL mAb [21]: 6340 pg/mL; IFN-γ (pg/mL), T cell stimulation assay, 0.1 µg/mL mAb [21]: 9360 pg/mL; IFN-γ (pg/mL), T cell stimulation assay, 1 µg/mL mAb [21]: 8790 pg/mL; IFN-γ (pg/mL), T cell stimulation assay, 10 µg/mL mAb [21]: 13100 pg/mL; IFN-γ (pg/mL), MLR, 0.001 µg/mL mAb [9]: 9790 pg/mL; IFN-γ (pg/mL), MLR, 0.01 µg/mL mAb [9]: 10700 pg/mL; IFN-γ (pg/mL), MLR, 0.1 µg/mL mAb [9]: 21700 pg/mL; IFN-γ (pg/mL), MLR, 1 µg/mL mAb [9]: 21700 pg/mL; IFN-γ (pg/mL), MLR, 10 µg/mL mAb [9]: 16900 pg/mL; IL-2 (pg/mL), MLR, 0.001 µg/mL mAb [12]: 215 pg/mL; IL-2 (pg/mL), MLR, 0.01 µg/mL mAb [12]: 274 pg/mL; IL-2 (pg/mL), MLR, 0.1 µg/mL mAb [12]: 654 pg/mL; IL-2 (pg/mL), MLR, 1 µg/mL mAb [12]: 729 pg/mL; IL-2 (pg/mL), MLR, 10 µg/mL mAb [12]: 601 pg/mL |
| B3 | 0.329 | 5090 | 11200 | 9340 | 14100 | 2.48 | 0.264 | 2.49 | 0.28 | 2.6 | 0.332 | 0.297 | 2.68 | ~2 | 2.59 | 0.852 | 0.281 | 2.59 | ~1 | 0.889 |  |

— patent US20190010233A1 (JIANGSU HYAMAB PHARMACEUTICAL, published 2019)
